# Experimental data from PMC4596477, “Interaction of Myosin Phosphatase Target Subunit (MYPT1) with Myosin Phosphatase-RhoA Interacting Protein (MRIP): A Role of Glutamic Acids in the Interaction” (PLoS ONE, 2015).
# T1: MRIP^724-878 (Homo sapiens, UniProt Q6WCQ1)
# T1 construct: MRIP^724-878 (residues 724–878; CC2-CC4); made in house; host or cells: Escherichia coli BL21 (DE3)
# T1 sequence (Q6WCQ1 725-879): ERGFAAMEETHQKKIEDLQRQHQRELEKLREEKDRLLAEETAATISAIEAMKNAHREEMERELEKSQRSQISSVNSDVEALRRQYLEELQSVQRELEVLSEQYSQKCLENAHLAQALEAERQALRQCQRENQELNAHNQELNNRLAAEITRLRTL
# Key:
# MRIP^724-878 = target: T1, MRIP^724-878; assay: AUC interaction of MYPT1 peptides (CC, LR and LR mutants) with MRIP^724-878; type: binding; conditions: s*lg(s*) graphs, pH 7.4, 20°C; for binding affinity toward MRIP^724-878, LR mutants: MRIP^724-878 with mutant LR peptide, 50 μM each, compared with wild-type LR; for main peak position of mixture with MRIP^724-878: excess mutant LR peptide for R992D/R993D and E996K, 50 μM each for others
# Excerpt: To determine the minimal MRIP-binding region of MYPT1, AUC was employed to examine interactions between sub-domains of CCLR, CC (residues 924–990) and LR (residues 991–1030) with MRIP^724-878 (Fig 4A). CC is the putative coiled coil domain and LR contains 16 upstream amino acid residues (residues 991–1006) in addition to the leucine repeat (residues 1007–1028). MRIP^724-878 was chosen because of its good fit to a single component, single-species model. […] Global fitting of the mixture to a two-component model produced a good fit and the RMSD of the fit was 0.010 (Fig 4B; Fitting of CC).
# The coiled coil is a common protein-protein interaction domain. The MRIP peptides in this study have putative coiled coil domains and are α-helical. In contrast, the MYPT1 peptide, LR is not α-helical even though it contains the leucine repeat. Thus, we hypothesized that charged residues of MYPT1 might participate in the MYPT1/MRIP interaction with its leucine residues. We generated various LR peptides representing mutations in charged residues (Fig 6A) and examined their bindings to MRIP^724-878 (Fig 6B).
# Fig 6 Glutamic acids within LR enhance the MRIP-binding affinity. (A) Amino acid sequences of the wild-type LR (WT-LR) and mutant LR peptides. Charged residues are in bold, the leucine repeat is in Italic, and substitution mutations are underlined. (B) Time derivative s*lg(s*) graphs: Line, MRIP^724-878 alone (50 μM); filled-in circles, original mixture of MRIP^724-878/each mutant LR peptide (50 μM each except for R992D/R993D and E996K whose mixtures consisted of excess amount of the mutant LR peptides); open circles, a three-fold dilution of the original mixture. The molar mass of the complex differs slightly from that of MRIP^724-878 dimer (37.9 kDa vs 37.4 kDa), and thus the shift in the main peak position is not easily discernable in many cases.
# (§1) The cDNA fragment encoding MRIP peptides were amplified using a full-length MRIP cDNA as a template with the following primer pairs: MRIP^545-878, 5’-[…]/5’[…]; MRIP^724-878, 5’-[…]/5’-[…]; MRIP^724-837, 5’-[…]/5’-[…]. The PCR products were ligated into pCR2.1-TOPO using the TA cloning system and sequenced in both directions. The IMPACT™ (Intein Mediated Purification with an Affinity Chitin-binding Tag) Kit (New England BioLabs) was used to express peptides in bacteria to obtain tag-free peptides. The PCR amplicon encoding MRIP peptides were fused in frame to the chitin binding domain of pTYB12 vector utilizing the NdeI/EcoRI restriction sites. The expression vectors for the MYPT1 peptides, CCLR (residues 924–1030), CC (residues 924–990), and LR (residues 991–1030) were constructed as described: In the reference literature, CCLR and LR were named CCLZ and LZ, respectively. Recombinant peptides were produced in Escherichia coli strain BL21 (DE3) and purified using chitin beads according to the manufacturer's protocol. For further purification, the eluent from chitin beads was loaded on a Vydac C8 reversed phase column and subjected to HPLC using an acetonitrile gradient. Purity and identity of the peptides were confirmed by polyacrylamide gel electrophoresis (PAGE) and mass spectrometry. For the mutagenesis study of LR, the wild-type and mutant LR peptides were synthesized, purified by reverse-phase HPLC, and lyophilized to dryness at the peptide core in Boston Biomedical Research Institute.
# Sedimentation velocity experiments were done on a Beckman Instruments Optima XL-I analytical ultracentrifuge equipped with Rayleigh optics. The cells were equipped with sapphire windows and 12 mm charcoal-filled Epon centerpieces. Apparent sedimentation coefficient distribution patterns were computed by the time derivative method. Peptides were dialyzed against 50 mM potassium phosphate buffer (pH 7.4) containing 100 mM KCl, and 1 mM DTT at 4°C overnight and then subjected to AUC at 50,000 rpm and 20°C. […]
# [1] = target: the molecule itself; assay: AUC; sedimentation velocity of each MRIP peptide alone, three-fold serial dilutions (MRIP^545-878 1.5–13.6 μM, MRIP^724-878 4.7–42.3 μM, MRIP^724-837 7.5–67.1 μM); 50 mM potassium phosphate pH 7.4, 100 mM KCl, 1 mM DTT, 50,000 rpm, 20°C; global fitting with SedAnal; constant of MRIP^724-837: dimer to monomers
# [2] = AUC sedimentation velocity of MRIP peptides alone (molar mass, sedimentation coefficient, oligomeric state); type: physicochemical; conditions: for molar mass: 50 mM potassium phosphate pH 7.4, 100 mM KCl, 1 mM DTT; for concentration dependence of g(s*) curves: MRIP^545-878 1.5–13.6 μM, MRIP^724-878 4.7–42.3 μM, MRIP^724-837 7.5–67.1 μM, pH 7.4, 20°C
# Excerpt: The RMSD of the fit was 0.008.
# as §1
# Sedimentation velocity experiments were done on a Beckman Instruments Optima XL-I analytical ultracentrifuge equipped with Rayleigh optics. The cells were equipped with sapphire windows and 12 mm charcoal-filled Epon centerpieces. Apparent sedimentation coefficient distribution patterns were computed by the time derivative method. Peptides were dialyzed against 50 mM potassium phosphate buffer (pH 7.4) containing 100 mM KCl, and 1 mM DTT at 4°C overnight and then subjected to AUC at 50,000 rpm and 20°C. Molar mass was computed from sedimentation velocity profiles using SedAnal, which uses a nonlinear least-squares curve fitting algorithm to fit data to solutions of the differential equation (the Lamm equation) describing sedimentation. Fits were performed on time difference data to remove the time-independent systematic baseline components. Values of s and D produced by the fitting procedure were substituted into the Svedberg equation to obtain the molar mass of the protein, M: M=RT/(1−ν¯ρ)s20,wo/D20,wo where ρ is the density of the buffer and ν¯ is the partial specific volume of the protein. Sednterp was employed to compute values of ρ and ν¯ from the amino acid sequence.
# CCLR = assay: AUC interaction of MRIP peptides with MYPT1 peptide CCLR (residues 924–1030); type: binding; conditions: equimolar mixtures (MRIP^545-878 14 μM each; MRIP^724-878 30 μM each; MRIP^724-837 67 μM each) and 3-, 9-fold dilutions, pH 7.4, 100 mM KCl, 20°C
# Method: AUC was performed to examine the interactions of MRIP^545-878, MRIP^724-878, or MRIP^724-837 individually with the MYPT1 peptide (residues 924–1030) containing a putative coiled coil domain (CC) and the leucine repeat region (LR), designated as CCLR.
# Fig 3 All MRIP peptides bind to the C-terminal region of MYPT1, CCLR (residues 924–1030). Concentration-normalized time derivative g(s*) graphs of the MRIP peptides by themselves and in equimolar mixtures: Lines, CCLR (30 μM); +, individual MRIP peptides by themselves (MRIP^545-878, 14 μM; MRIP^724-878, 50 μM; MRIP^724-837, 67 μM); black filled-in circles, original equimolar mixtures (MRIP^545-878, 14 μM each; MRIP^724-878, 30 μM each; MRIP^724-837, 67 μM each); open circles, 3-fold dilutions; gray filled-in circles, 9-fold dilutions.
# as §1, with “For the mutagenesis study of LR, the wild-type and mutant LR peptides were synthesized, purified by reverse-phase HPLC, and lyophilized to dryness at the peptide core in Boston Biomedical Research Institute.” left out
# [3] = AUC sedimentation velocity, pH 7.4, 100 mM KCl, 20°C
molecule,measurement,setting,value
LR^1001-1030: mutant LR peptide shorter than LR in length (LKMLPDLKADNQRLKDENGALIRVISKLSK),"binding affinity toward MRIP^724-878, LR mutants",MRIP^724-878,decreased
"E996K: mutant LR peptide with same length as wild-type, substitutions for charged residues (ERRISKMEEELKMLPDLKADNQRLKDENGALIRVISKLSK)",main peak position of mixture with MRIP^724-878,MRIP^724-878,"shifted to the right, indicating binding"
EtriA: mutant LR in which glutamic acid residues 998–1000 were replaced by alanine (ERRISEMAAALKMLPDLKADNQRLKDENGALIRVISKLSK),"binding affinity toward MRIP^724-878, LR mutants",MRIP^724-878,significantly decreased binding affinity
"R992D/R993D: mutant LR peptide with same length as wild-type, substitutions for charged residues (EDDISEMEEELKMLPDLKADNQRLKDENGALIRVISKLSK)",main peak position of mixture with MRIP^724-878,MRIP^724-878,"shifted to the right, indicating binding"
LR^1007-1028: mutant LR peptide shorter than LR in length (LKADNQRLKDENGALIRVISKL),"binding affinity toward MRIP^724-878, LR mutants",MRIP^724-878,decreased
EtriQ: mutant LR in which glutamic acid residues 998–1000 were replaced by glutamine (ERRISEMQQQLKMLPDLKADNQRLKDENGALIRVISKLSK),"binding affinity toward MRIP^724-878, LR mutants",MRIP^724-878,significantly decreased binding affinity
LR^997-1030: mutant LR peptide shorter than LR in length (MEEELKMLPDLKADNQRLKDENGALIRVISKLSK),"binding affinity toward MRIP^724-878, LR mutants",MRIP^724-878,decreased
"MRIP^724-837 (myosin phosphatase-RhoA interacting protein, residues 724–837; CC2-CC3) (domain or fragment, UniProt Q6WCQ1 724-837, looked up, Monomer-dimer equilibrium in solution by AUC; source: E. coli BL21 (DE3), purified (chitin beads, C8 reversed-phase HPLC)) CERGFAAMEETHQKKIEDLQRQHQRELEKLREEKDRLLAEETAATISAIEAMKNAHREEMERELEKSQRSQISSVNSDVEALRRQYLEELQSVQRELEVLSEQYSQKCLENAHL",Kd,[1],21 µM
same,stoichiometry N,[1],2
"MRIP^724-837: recombinant tag-free MRIP peptide, residues 724–837; CC2-CC3 (protein, left off: chitin-binding domain (IMPACT kit, pTYB12), N-terminal, cleaved, recombinant tag-free MRIP peptide, residues 724–837; CC2-CC3) CERGFAAMEETHQKKIEDLQRQHQRELEKLREEKDRLLAEETAATISAIEAMKNAHREEMERELEKSQRSQISSVNSDVEALRRQYLEELQSVQRELEVLSEQYSQKCLENAHL",molar mass,"[2]; AUC sedimentation velocity, SedAnal global fit to monomer-dimer reaction, 7.5–67.1 μM, 20°C, CL 0.95",13.9±0.2 kDa
same,oligomeric state in solution,[2]; [3],a mixture of monomer-dimer
same,"sedimentation coefficient, monomer","[2]; AUC, monomer-dimer model, 7.5–67.1 μM, pH 7.4, 100 mM KCl, 20°C, CL 0.95, min, 1.23, max, 1.31",1.29 S
same,"sedimentation coefficient, dimer","[2]; AUC, monomer-dimer model, 7.5–67.1 μM, pH 7.4, 100 mM KCl, 20°C, CL 0.95, min, 1.88, max, 1.91",1.90 S
same,concentration dependence of g(s*) curves,[2]; AUC,concentration dependence and a reversible interaction
same,binding to CCLR (shift in g(s*) curves),CCLR,bind to CCLR
"MRIP^724-878 (myosin phosphatase-RhoA interacting protein, residues 724–878; CC2-CC4) (domain or fragment, UniProt Q6WCQ1 724-878, looked up, Tight homodimer in solution by AUC; the forward primer puts an NdeI ATG before the codons GAGCGAGGGTTTGCAGCAATG; source: E. coli BL21 (DE3), purified (chitin beads, C8 reversed-phase HPLC)) CERGFAAMEETHQKKIEDLQRQHQRELEKLREEKDRLLAEETAATISAIEAMKNAHREEMERELEKSQRSQISSVNSDVEALRRQYLEELQSVQRELEVLSEQYSQKCLENAHLAQALEAERQALRQCQRENQELNAHNQELNNRLAAEITRLRT",stoichiometry N,[1],2
"MRIP^545-878: recombinant tag-free MRIP peptide, residues 545–878; CC1-CC4 (protein, left off: chitin-binding domain (IMPACT kit, pTYB12), N-terminal, cleaved, recombinant tag-free MRIP peptide, residues 545–878; CC1-CC4) WAEFRPIQQALAQERVGGVGPADTHEPLRPEAEPGELERERARRREERRKRFGMLDATDGPGTEDAALRMEVDRSPGLPMSDLKTHNVHVEIEQRWHQVETTPLREEKQVPIAPVHLSSEDGGDRLSTHELTSLLEKELEQSQKEASDLLEQNRLLQDQLRVALGREQSAREGYVLQATCERGFAAMEETHQKKIEDLQRQHQRELEKLREEKDRLLAEETAATISAIEAMKNAHREEMERELEKSQRSQISSVNSDVEALRRQYLEELQSVQRELEVLSEQYSQKCLENAHLAQALEAERQALRQCQRENQELNAHNQELNNRLAAEITRLRT",molar mass,"[2]; AUC sedimentation velocity, SedAnal global fit to two components (main component), 1.5–13.6 μM, 50,000 rpm, 20°C, CL 0.95, min, 38.1, max, 40.9",39.4 kDa
same,sedimentation coefficient,"[2]; AUC sedimentation velocity, SedAnal global fit, two components (main component), 1.5–13.6 μM, pH 7.4, 100 mM KCl, 20°C, CL 0.95",2.17±0.01 S
same,oligomeric state in solution,[2]; [3],forms a monomer in solution
same,concentration dependence of g(s*) curves,[2]; AUC,no-concentration dependence and the presence of one species in solution
same,binding to CCLR (shift in g(s*) curves),CCLR,bind to CCLR
